In patent US20170267766A1 (PIERRE FABRE MEDICAMENT, published 2017):

Legend:
[1] = molecular target: T1, human IGF-1R (native, on cells) (human, UniProt P08069 31-1367); test: FACS titration, MCF-7
T1 construct: also called hIGF-1R; native IGF-1R on MCF-7 cells
Experimental: (§1) The binding properties of the humanized variants were evaluated by FACS analyses on the human MCF-7 breast adenocarcinoma cell line and the monkey cell line Cos-7 using increasing antibody concentrations. For that purpose, cells (1×10⁶ cells/ml) were incubated with anti-IGF-1R humanized antibodies for 20 min. at 4° C. in FACS buffer (PBS, 0.1% BSA, 0.01% NaN3). They were then washed 3 times and incubated with the appropriate secondary antibody coupled with Alexa 488 for 20 additional minutes at 4° C. in the dark before being washed 3 times in FACS buffer. The binding of anti-IGF-1R antibodies was immediately performed on viable cells which were identified using propidium iodide (that stains dead cells). The EC₅₀ of binding expressed in molarity (M) was calculated using a nonlinear regression analysis (GraphPad Prims 4.0).

[2] = molecular target: T2, monkey IGF-1R (on COS-7 cells) (African green monkey); test: FACS titration, Cos-7
T2 construct: whole, on cells
Experimental: as §1

[3] = molecular target: T1, human IGF-1R (native, on cells); test: FACS titration, MCF-7; remark: listed apart in the source
Experimental: The binding properties of a series of anti-IGF-1R antibodies were evaluated by FACS analyses on the human MCF-7 breast adenocarcinoma cell line (ATCC#HTB-22) using increasing antibody concentrations. For that purpose, cells (1×10⁶ cells/ml) were incubated with anti-IGF-1R antibodies for 20 min. at 4° C. in FACS buffer (PBS, 0.1% BSA, 0.01% NaN₃). They were then washed 3 times and incubated with the appropriate secondary antibody coupled with Alexa 488 for 20 additional minutes at 4° C. in the dark before being washed 3 times in FACS buffer. The binding of anti-IGF-1R antibodies was immediately performed on viable cells which were identified using propidium iodide (that stains dead cells). The maximum of signal intensity obtained with each antibody was designed as Bₘₐₓ and expressed in mean of fluorescence intensity (MFI). The EC₅₀ of binding expressed in molarity (M) was calculated using a nonlinear regression analysis (GraphPad Prims 4.0).

[4] = molecular target: T2, monkey IGF-1R (on COS-7 cells); test: cell-based or functional assay
[5] = molecular target: T1, human IGF-1R (native, on cells); test: cell-based or functional assay
[6] = molecular target: T1, human IGF-1R (native, on cells); test: FACS titration, hIGF-1R transfected cells
Experimental: Briefly, increasing concentrations of chimeric mAbs were incubated with cells for 20 min at 4° C. in FACS buffer (PBS, 0.1% BSA, 0.01% NaN₃). Cells were then washed 3 times and incubated with the appropriate secondary antibody coupled with Alexa 488 before being incubated for 20 additional minutes at 4° C. in the dark and then washed 3 times in FACS buffer. The binding of anti-IGF-1R antibodies was immediately performed on viable cells which were identified using propidium iodide (that stains dead cells). The binding EC₅₀ expressed in molarity (M) was calculated using a nonlinear regression analysis (GraphPad Prims 4.0).

[7] = molecular target: T1, human IGF-1R (native, on cells); test: cell-based or functional assay; remark: listed apart in the source

Row | Binder | EC50 [1] | EC50 [2] | further results
1 | hz208F2 H070/L018 (antibody, human IgG1, kappa, V domains shown, humanized 208F2 variant) VH: QVQLVQSGAEVKKPGASVKVSCKASGYTFTSYYMHWVRQAPGQGLEWMGWIWPGDGSTKYAQKFQGRVTMTRDTSTSTVYMELSSLRSEDTAVYYCASPMITPNYAMDYWGQGTLVTVSS VL: DIQMTQSPSSLSASVGDRVTITCRASQDISKYLNWYQQKPGKAPKLLIYYTSRLQSGVPSRFSGRGSGTDYSLTISSLQPEDFATYFCQQGSTLPYTFGGGTKVEIKR | 0.46 nM | 0.73 nM | –
2 | hz208F2 H068/L018 (antibody, human IgG1, kappa, V domains shown, humanized 208F2 variant) VH: QVQLVQSGAEVKKPGASVKVSCKASGYTFTSYYMHWVRQAPGQGLEWMGWIWPGDGSTKYAQKFQGRVTMTRDTSTNTVYMELSSLRSEDTAVYFCASPMITPNYAMDYWGQGTLVTVSS VL: DIQMTQSPSSLSASVGDRVTITCRASQDISKYLNWYQQKPGKAPKLLIYYTSRLQSGVPSRFSGRGSGTDYSLTISSLQPEDFATYFCQQGSTLPYTFGGGTKVEIKR | 1.1 nM | 1.2 nM | –
3 | hz208F2 H057/L018 (antibody, human IgG1, kappa, V domains shown, humanized 208F2 variant) VH: QVQLVQSGAEVKKPGASVKVSCKASGYTFTSYYIHWVRQAPGQGLEWMGWIWPGDGSTKYAQKFQGRVTMTRDKSTNTVYMELSSLRSEDTAVYYCASPMITPNYAMDYWGQGTLVTVSS VL: DIQMTQSPSSLSASVGDRVTITCRASQDISKYLNWYQQKPGKAPKLLIYYTSRLQSGVPSRFSGRGSGTDYSLTISSLQPEDFATYFCQQGSTLPYTFGGGTKVEIKR | 0.58 nM | 0.83 nM | –
4 | hz208F2 H049/L021 (antibody, human IgG1, kappa, V domains shown, humanized 208F2 variant) VH: QVQLVQSGAEVKKPGASVKVSCKASGYTFTSYYMHWVRQAPGQGLEWMGWIWPGDGSTKYAQKFQGRVTMTRDKSSSTVYMELSSLRSEDTAVYYCASPMITPNYAMDYWGQGTLVTVSS VL: DIQMTQSPSSLSASVGDRVTITCRASQDISKYLNWYQQKPGKAPKLLIYYTSRLHSGVPSRFSGRGSGTDFSLTISSLQPEDFATYFCQQGSTLPYTFGGGTKVEIKR | – | 0.85 nM | –
5 | hz208F2 H076/L021 (antibody, human IgG1, kappa, V domains shown, humanized 208F2 variant) VH: QVQLVQSGAEVKKPGASVKVSCKASGYTFTSYYIHWVRQAPGQGLEWMGWIWPGDGSTKYAQKFQGRVTMTRDTSTSTVYMELSSLRSEDTAVYYCASPMITPNYAMDYWGQGTLVTVSS VL: DIQMTQSPSSLSASVGDRVTITCRASQDISKYLNWYQQKPGKAPKLLIYYTSRLHSGVPSRFSGRGSGTDFSLTISSLQPEDFATYFCQQGSTLPYTFGGGTKVEIKR | – | 1.1 nM | –
6 | hz208F2 H037/L018 (antibody, human IgG1, kappa, V domains shown, humanized 208F2 variant) VH: QVQLVQSGAEVKKPGASVKVSCKASGYTFTSYYMHWVRQAPGQGLEWMGWIWPGDGSTKYAQKFQGRVTMTRDKSSSTVYMELSSLRSEDTAVYFCASPMITPNYAMDYWGQGTLVTVSS VL: DIQMTQSPSSLSASVGDRVTITCRASQDISKYLNWYQQKPGKAPKLLIYYTSRLQSGVPSRFSGRGSGTDYSLTISSLQPEDFATYFCQQGSTLPYTFGGGTKVEIKR | 0.49 nM | 0.74 nM | –
7 | hz208F2 H051/L018 (antibody, human IgG1, kappa, V domains shown, humanized 208F2 variant) VH: QVQLVQSGAEVKKPGASVKVSCKASGYTFTSYYMHWVRQAPGQGLEWMGWIWPGDGSTKYAQKFQGRVTMTRDTSSNTVYMELSSLRSEDTAVYFCASPMITPNYAMDYWGQGTLVTVSS VL: DIQMTQSPSSLSASVGDRVTITCRASQDISKYLNWYQQKPGKAPKLLIYYTSRLQSGVPSRFSGRGSGTDYSLTISSLQPEDFATYFCQQGSTLPYTFGGGTKVEIKR | 0.57 nM | 0.72 nM | –
8 | hz208F2 H052/L021 (antibody, human IgG1, kappa, V domains shown, humanized 208F2 variant) VH: QVQLVQSGAEVKKPGASVKVSCKASGYTFTSYYMHWVRQAPGQGLEWMGWIWPGDGSTKYAQKFQGRVTMTRDTSTSTVYMELSSLRSEDTAVYFCASPMITPNYAMDYWGQGTLVTVSS VL: DIQMTQSPSSLSASVGDRVTITCRASQDISKYLNWYQQKPGKAPKLLIYYTSRLHSGVPSRFSGRGSGTDFSLTISSLQPEDFATYFCQQGSTLPYTFGGGTKVEIKR | 0.57 nM | 1.2 nM | –
9 | hz208F2 H077/L018 (antibody, human IgG1, kappa, V domains shown, humanized 208F2 variant) VH: QVQLVQSGAEVKKPGASVKVSCKASGYTFTSYYIHWVRQAPGQGLEWMGWIWPGDGSTKYAQKFQGRVTMTRDTSTSTVYMELSSLRSEDTAVYFCASPMITPNYAMDYWGQGTLVTVSS VL: DIQMTQSPSSLSASVGDRVTITCRASQDISKYLNWYQQKPGKAPKLLIYYTSRLQSGVPSRFSGRGSGTDYSLTISSLQPEDFATYFCQQGSTLPYTFGGGTKVEIKR | 0.77 nM | 1.1 nM | –
10 | hz208F2 H047/L018 (antibody, human IgG1, kappa, V domains shown, humanized 208F2 variant) VH: QVQLVQSGAEVKKPGASVKVSCKASGYTFTSYYIHWVRQAPGQGLEWMGWIWPGDGSTKYAQKFQGRVTMTRDTSSNTVYMELSSLRSEDTAVYYCASPMITPNYAMDYWGQGTLVTVSS VL: DIQMTQSPSSLSASVGDRVTITCRASQDISKYLNWYQQKPGKAPKLLIYYTSRLQSGVPSRFSGRGSGTDYSLTISSLQPEDFATYFCQQGSTLPYTFGGGTKVEIKR | 0.77 nM | 0.92 nM | –
11 | hz208F2 H076/L018 (antibody, human IgG1, kappa, V domains shown, humanized 208F2 variant) VH: QVQLVQSGAEVKKPGASVKVSCKASGYTFTSYYIHWVRQAPGQGLEWMGWIWPGDGSTKYAQKFQGRVTMTRDTSTSTVYMELSSLRSEDTAVYYCASPMITPNYAMDYWGQGTLVTVSS VL: DIQMTQSPSSLSASVGDRVTITCRASQDISKYLNWYQQKPGKAPKLLIYYTSRLQSGVPSRFSGRGSGTDYSLTISSLQPEDFATYFCQQGSTLPYTFGGGTKVEIKR | 0.65 nM | 1.1 nM | –
12 | hz208F2 H037/L021 (antibody, human IgG1, kappa, V domains shown, humanized 208F2 variant) VH: QVQLVQSGAEVKKPGASVKVSCKASGYTFTSYYMHWVRQAPGQGLEWMGWIWPGDGSTKYAQKFQGRVTMTRDKSSSTVYMELSSLRSEDTAVYFCASPMITPNYAMDYWGQGTLVTVSS VL: DIQMTQSPSSLSASVGDRVTITCRASQDISKYLNWYQQKPGKAPKLLIYYTSRLHSGVPSRFSGRGSGTDFSLTISSLQPEDFATYFCQQGSTLPYTFGGGTKVEIKR | 0.48 nM | 0.82 nM | –
13 | hz208F2 H052/L018 (antibody, human IgG1, kappa, V domains shown, humanized 208F2 variant) VH: QVQLVQSGAEVKKPGASVKVSCKASGYTFTSYYMHWVRQAPGQGLEWMGWIWPGDGSTKYAQKFQGRVTMTRDTSTSTVYMELSSLRSEDTAVYFCASPMITPNYAMDYWGQGTLVTVSS VL: DIQMTQSPSSLSASVGDRVTITCRASQDISKYLNWYQQKPGKAPKLLIYYTSRLQSGVPSRFSGRGSGTDYSLTISSLQPEDFATYFCQQGSTLPYTFGGGTKVEIKR | 0.84 nM | 0.99 nM | –
14 | hz208F2 H071/L018 (antibody, human IgG1, kappa, V domains shown, humanized 208F2 variant) VH: QVQLVQSGAEVKKPGASVKVSCKASGYTFTSYYMHWVRQAPGQGLEWMGWIWPGDGSTKYAQKFQGRVTMTRDTSTNTVYMELSSLRSEDTAVYYCASPMITPNYAMDYWGQGTLVTVSS VL: DIQMTQSPSSLSASVGDRVTITCRASQDISKYLNWYQQKPGKAPKLLIYYTSRLQSGVPSRFSGRGSGTDYSLTISSLQPEDFATYFCQQGSTLPYTFGGGTKVEIKR | 0.55 nM | 1.1 nM | –
15 | hz208F2 H049/L018 (antibody, human IgG1, kappa, V domains shown, humanized 208F2 variant) VH: QVQLVQSGAEVKKPGASVKVSCKASGYTFTSYYMHWVRQAPGQGLEWMGWIWPGDGSTKYAQKFQGRVTMTRDKSSSTVYMELSSLRSEDTAVYYCASPMITPNYAMDYWGQGTLVTVSS VL: DIQMTQSPSSLSASVGDRVTITCRASQDISKYLNWYQQKPGKAPKLLIYYTSRLQSGVPSRFSGRGSGTDYSLTISSLQPEDFATYFCQQGSTLPYTFGGGTKVEIKR | 0.49 nM | 0.69 nM | –
16 | c212A11 (antibody, human IgG1, kappa, V domains shown, group G2; also called chimeric 212A11) VH: QVQLQQSGPELVKPGASVKMSCKASGYTFTSYYIHWVKQRPGQGLEWIGWIWPGDGSTKYNEKFKGKTTLTADKSSSTAYMFLSSLTSEDSAVYFCASPMITPNYAMDYWGQGASVTVSS VL: DIQMTQTTSSLSASLGDRVTISCRASQDINKYLNWYQQQPDGTVKLLIYYTSRLHSGVPSRFSGRGSGTDYSLTISNLEQEDIATYFCQQGSTLPYTFGGGTKLEIKR | – | – | Bmax [3]: 991 MFI; EC50 [3]: 0.67 nM; % internalisation [4]: 75%; ΔMFI [4]: 98 MFI; % Internalization (MCF-7, 10 µg/ml, 4 h) [5]: 80%; ΔMFI [5]: 322 MFI; Bmax [6]: 2510 MFI; EC50 [6]: 0.44 nM; hIGF-1R phosphorylation, % of that induced by IGF-1 (MCF-7, Ab 10 µg/ml) [7]: < 20%
